In publication PMC6264593 one finds Kd data, which are given here for four substances.

Among the targets are hFcγRIIa (human) (UniProt P12318); hFcγRIIb (human) (UniProt P31994); hFcγRI (human) (UniProt P12314); hFcγRIIIa (human) (UniProt P08637); mFcγRIIb (mouse) (UniProt P08101); mFcγRIV (mouse); mFcγRIII (mouse) (UniProt P08508).
Common to all, as to test: SPR; Fcγ receptor affinities (KD) by Surface Plasma Resonance; mAb up to 6.4 µM

pKd: −log10 of the molar value.

hFcγRI (human), sequence (P12314 16-374): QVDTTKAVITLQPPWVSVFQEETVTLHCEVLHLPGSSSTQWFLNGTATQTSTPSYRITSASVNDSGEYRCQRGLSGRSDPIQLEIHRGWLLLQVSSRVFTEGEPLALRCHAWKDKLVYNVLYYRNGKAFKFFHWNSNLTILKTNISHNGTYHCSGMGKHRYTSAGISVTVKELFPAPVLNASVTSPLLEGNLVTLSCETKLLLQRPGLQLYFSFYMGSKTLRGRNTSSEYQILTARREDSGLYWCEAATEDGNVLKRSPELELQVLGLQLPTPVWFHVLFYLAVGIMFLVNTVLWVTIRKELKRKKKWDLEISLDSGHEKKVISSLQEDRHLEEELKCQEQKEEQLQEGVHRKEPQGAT
hFcγRIIb (human), sequence (P31994 43-310): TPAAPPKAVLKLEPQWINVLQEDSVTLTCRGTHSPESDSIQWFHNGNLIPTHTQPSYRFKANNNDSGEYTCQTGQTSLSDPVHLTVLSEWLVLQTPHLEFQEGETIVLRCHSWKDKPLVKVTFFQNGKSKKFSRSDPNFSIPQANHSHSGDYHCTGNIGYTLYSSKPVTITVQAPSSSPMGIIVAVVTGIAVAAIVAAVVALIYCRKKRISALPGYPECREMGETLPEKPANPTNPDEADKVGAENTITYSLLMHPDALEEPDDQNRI
hFcγRIIa (human), sequence (P12318 34-317): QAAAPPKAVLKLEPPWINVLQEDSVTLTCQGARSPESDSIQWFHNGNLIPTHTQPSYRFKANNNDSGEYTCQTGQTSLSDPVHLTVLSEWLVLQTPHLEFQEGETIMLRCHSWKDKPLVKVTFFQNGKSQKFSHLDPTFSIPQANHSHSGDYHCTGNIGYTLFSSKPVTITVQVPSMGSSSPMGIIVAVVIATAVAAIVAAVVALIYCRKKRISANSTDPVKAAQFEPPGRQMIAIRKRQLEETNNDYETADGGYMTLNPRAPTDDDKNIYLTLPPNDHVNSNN
mFcγRIIb (mouse), sequence (P08101 30-330): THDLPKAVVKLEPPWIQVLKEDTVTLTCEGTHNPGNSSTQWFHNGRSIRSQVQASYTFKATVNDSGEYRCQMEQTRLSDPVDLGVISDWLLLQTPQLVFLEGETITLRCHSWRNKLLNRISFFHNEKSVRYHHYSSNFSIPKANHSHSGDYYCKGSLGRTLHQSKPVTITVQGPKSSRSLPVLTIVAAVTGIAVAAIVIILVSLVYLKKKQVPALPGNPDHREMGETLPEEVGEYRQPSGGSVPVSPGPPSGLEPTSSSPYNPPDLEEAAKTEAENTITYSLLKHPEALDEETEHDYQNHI
mFcγRIII (mouse), sequence (P08508 31-261): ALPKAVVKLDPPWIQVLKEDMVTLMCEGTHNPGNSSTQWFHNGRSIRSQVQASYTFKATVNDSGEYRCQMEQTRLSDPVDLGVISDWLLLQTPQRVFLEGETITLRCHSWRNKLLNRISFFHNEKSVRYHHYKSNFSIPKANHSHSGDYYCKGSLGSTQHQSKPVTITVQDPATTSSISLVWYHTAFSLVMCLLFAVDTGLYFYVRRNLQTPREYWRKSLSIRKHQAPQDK
mFcγRIV (mouse), sequence (A0A0B4J1G0 21-249): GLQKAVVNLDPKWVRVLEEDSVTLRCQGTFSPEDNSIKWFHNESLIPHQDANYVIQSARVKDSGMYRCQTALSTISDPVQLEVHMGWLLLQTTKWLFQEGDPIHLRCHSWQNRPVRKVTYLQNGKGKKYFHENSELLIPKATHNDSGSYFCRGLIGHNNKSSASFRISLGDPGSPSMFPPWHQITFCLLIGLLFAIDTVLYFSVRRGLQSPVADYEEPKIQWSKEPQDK
hFcγRIIIa (human), sequence (P08637 17-254): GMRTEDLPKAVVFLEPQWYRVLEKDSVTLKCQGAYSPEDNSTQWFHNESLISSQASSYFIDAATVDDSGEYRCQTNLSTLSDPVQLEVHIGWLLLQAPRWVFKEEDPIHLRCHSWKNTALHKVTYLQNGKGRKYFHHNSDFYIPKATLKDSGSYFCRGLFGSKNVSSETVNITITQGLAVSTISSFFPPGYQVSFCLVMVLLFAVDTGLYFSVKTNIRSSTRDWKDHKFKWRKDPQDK

Consider 3D6-huIgG1 (antibody), for which the pKd (usually −log10 of the Kd, conventionally taken in molar units) with hFcγRIIa (human) was 6.10; in the experiment with hFcγRIIb (human), 5.69; in the experiment with hFcγRI (human) it was 9.07; in the experiment with hFcγRIIIa (human), 6.33.
In the experiment with mFcγRIIb (mouse), SAR255952 (antibody) gave a pKd below 5.35.
SAR228810 (antibody): the pKd was 5.58 with hFcγRIIa (human), 5.74 in the experiment with hFcγRIIb (human) and 6.61 in the experiment with hFcγRI (human).
On to 3D6mIgG2b (antibody), for which the pKd with mFcγRIIb (mouse) was 6.34; in the experiment with mFcγRIV (mouse) it was 7.66; in the experiment with mFcγRIII (mouse), 6.92.
